Laboratory results taken from PMC10188570, “Pathway and mechanism of tubulin folding mediated by TRiC/CCT along its ATPase cycle revealed using cryo-EM” (Communications Biology, 2023).

How the values were obtained:
Experiment in all cases: cross-linking; XL-MS, 2 mM BS3 on ice 2 h, purified TRiC with associated tubulin after 1 mM ATP, 5 mM MgCl2, 5 mM Al(NO3)3, 30 mM NaF (ATP-AlFx) 1 h 37 °C
Conditions in all cases: both partners purified
CCT8 = target: T1, CCT8 (human, UniProt P50990 1-548)
T1 construct: CCT8 subunit of human TRiC/CCT, endogenous; stood in the assays as a subunit of the whole TRiC complex; also called TRiC subunit CCT8; CCT8’ (copy in the trans ring); source: endogenous, HEK293F cells, purified as a subunit of TRiC
T1 sequence (looked up): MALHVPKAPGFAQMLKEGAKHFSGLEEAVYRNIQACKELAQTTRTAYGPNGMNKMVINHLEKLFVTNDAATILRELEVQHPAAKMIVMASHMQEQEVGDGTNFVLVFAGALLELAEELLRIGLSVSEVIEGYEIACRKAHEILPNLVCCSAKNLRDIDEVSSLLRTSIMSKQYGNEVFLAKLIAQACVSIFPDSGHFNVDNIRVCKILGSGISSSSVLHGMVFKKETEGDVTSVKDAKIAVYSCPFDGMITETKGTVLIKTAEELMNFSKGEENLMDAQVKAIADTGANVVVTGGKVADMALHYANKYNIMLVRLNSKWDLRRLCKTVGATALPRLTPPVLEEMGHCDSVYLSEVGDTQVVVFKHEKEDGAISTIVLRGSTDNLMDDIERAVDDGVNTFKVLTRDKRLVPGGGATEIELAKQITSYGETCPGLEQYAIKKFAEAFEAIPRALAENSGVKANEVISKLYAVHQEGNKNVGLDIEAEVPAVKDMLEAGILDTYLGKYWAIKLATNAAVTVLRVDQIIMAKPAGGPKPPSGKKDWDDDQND

CCT3 = target: T2, CCT3 (human, UniProt P49368 1-545)
T2 construct: CCT3 subunit of human TRiC/CCT, endogenous; stood in the assays as a subunit of the whole TRiC complex; also called TRiC subunit CCT3; source: endogenous, HEK293F cells, purified as a subunit of TRiC
T2 sequence (looked up): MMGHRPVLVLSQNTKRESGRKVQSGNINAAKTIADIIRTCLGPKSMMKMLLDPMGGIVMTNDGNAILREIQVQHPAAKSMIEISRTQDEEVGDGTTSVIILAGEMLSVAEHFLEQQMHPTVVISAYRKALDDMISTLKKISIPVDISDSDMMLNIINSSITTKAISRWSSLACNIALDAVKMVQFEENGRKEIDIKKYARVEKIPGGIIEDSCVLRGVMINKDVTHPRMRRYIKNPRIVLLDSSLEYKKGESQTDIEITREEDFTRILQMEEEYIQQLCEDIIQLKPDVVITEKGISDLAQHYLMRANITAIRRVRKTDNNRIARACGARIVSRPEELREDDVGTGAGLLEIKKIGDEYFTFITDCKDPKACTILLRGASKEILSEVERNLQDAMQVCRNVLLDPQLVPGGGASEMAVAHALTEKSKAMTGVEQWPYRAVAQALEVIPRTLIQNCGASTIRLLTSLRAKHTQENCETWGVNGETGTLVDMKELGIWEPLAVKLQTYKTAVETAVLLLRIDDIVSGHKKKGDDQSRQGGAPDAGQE

CCT4 = target: T3, CCT4 (human, UniProt P50991 1-539)
T3 construct: CCT4 subunit of human TRiC/CCT, endogenous; stood in the assays as a subunit of the whole TRiC complex; also called TRiC subunit CCT4; source: endogenous, HEK293F cells, purified as a subunit of TRiC
T3 sequence (looked up): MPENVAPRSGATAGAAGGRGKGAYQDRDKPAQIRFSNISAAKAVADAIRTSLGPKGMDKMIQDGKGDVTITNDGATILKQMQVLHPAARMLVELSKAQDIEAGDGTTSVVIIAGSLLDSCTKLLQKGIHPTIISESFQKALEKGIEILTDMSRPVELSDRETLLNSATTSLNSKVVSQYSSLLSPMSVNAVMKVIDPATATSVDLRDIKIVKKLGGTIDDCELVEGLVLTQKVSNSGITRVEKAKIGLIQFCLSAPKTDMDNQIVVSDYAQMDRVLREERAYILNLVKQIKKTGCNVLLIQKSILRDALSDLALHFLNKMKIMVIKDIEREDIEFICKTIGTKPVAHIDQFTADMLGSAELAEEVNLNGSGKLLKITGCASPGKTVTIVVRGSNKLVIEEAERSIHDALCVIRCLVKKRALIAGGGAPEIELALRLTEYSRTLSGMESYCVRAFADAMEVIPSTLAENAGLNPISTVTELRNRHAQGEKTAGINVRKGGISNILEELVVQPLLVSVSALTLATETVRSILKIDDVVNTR

CCT5 = target: T4, CCT5 (human, UniProt P48643 1-541)
T4 construct: CCT5 subunit of human TRiC/CCT, endogenous; stood in the assays as a subunit of the whole TRiC complex; also called TRiC subunit CCT5; source: endogenous, HEK293F cells, purified as a subunit of TRiC

CCT7 = target: T5, CCT7 (human, UniProt Q99832 1-543)
T5 construct: CCT7 subunit of human TRiC/CCT, endogenous; stood in the assays as a subunit of the whole TRiC complex; also called TRiC subunit CCT7; source: endogenous, HEK293F cells, purified as a subunit of TRiC
T5 sequence (looked up): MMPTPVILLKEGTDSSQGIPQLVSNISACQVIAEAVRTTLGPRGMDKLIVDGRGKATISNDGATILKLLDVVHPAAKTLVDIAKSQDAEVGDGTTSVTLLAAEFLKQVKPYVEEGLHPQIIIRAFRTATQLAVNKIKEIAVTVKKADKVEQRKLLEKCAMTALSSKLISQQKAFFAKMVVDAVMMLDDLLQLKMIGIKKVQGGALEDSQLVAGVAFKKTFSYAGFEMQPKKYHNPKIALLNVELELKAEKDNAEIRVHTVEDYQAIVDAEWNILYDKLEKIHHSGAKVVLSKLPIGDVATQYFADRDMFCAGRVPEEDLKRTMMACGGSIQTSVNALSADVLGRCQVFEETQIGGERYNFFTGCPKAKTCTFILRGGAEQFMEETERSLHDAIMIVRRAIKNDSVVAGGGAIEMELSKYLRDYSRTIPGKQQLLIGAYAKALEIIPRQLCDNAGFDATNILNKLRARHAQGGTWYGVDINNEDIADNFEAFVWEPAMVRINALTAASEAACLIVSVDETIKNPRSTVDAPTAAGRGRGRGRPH

Measured: binding result

T4 sequence (P48643 whole entry): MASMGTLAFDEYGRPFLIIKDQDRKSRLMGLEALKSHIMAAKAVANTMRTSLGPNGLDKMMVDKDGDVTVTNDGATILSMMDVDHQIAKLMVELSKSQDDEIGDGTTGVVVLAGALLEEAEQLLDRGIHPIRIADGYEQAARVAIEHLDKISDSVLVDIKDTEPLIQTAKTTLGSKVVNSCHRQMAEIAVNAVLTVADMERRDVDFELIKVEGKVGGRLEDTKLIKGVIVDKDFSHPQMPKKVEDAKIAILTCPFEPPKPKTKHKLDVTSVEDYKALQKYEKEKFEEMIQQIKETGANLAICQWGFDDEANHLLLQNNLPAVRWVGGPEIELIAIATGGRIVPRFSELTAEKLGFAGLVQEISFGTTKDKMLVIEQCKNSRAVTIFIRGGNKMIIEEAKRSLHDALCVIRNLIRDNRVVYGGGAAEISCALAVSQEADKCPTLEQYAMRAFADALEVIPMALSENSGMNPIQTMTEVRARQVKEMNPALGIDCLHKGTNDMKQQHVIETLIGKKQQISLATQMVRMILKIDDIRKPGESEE

B1: β-tubulin (TUBB5) (natural protein, human (endogenous in HEK293F), UniProt P07437 1-444, looked up)
chain: MREIVHIQAGQCGNQIGAKFWEVISDEHGIDPTGTYHGDSDLQLDRISVYYNEATGGKYVPRAILVDLEPGTMDSVRSGPFGQIFRPDNFVFGQSGAGNNWAKGHYTEGAELVDSVLDVVRKEAESCDCLQGFQLTHSLGGGTGSGMGTLLISKIREEYPDRIMNTFSVVPSPKVSDTVVEPYNATLSVHQLVENTDETYCIDNEALYDICFRTLKLTTPTYGDLNHLVSATMSGVTTCLRFPGQLNADLRKLAVNMVPFPRLHFFMPGFAPLTSRGSQQYRALTVPELTQQVFDAKNMMAACDPRHGRYLTVAAVFRGRMSMKEVDEQMLNVQNKNSSYFVEWIPNNVKTAVCDIPPRGLKMAVTFIGNSTAIQELFKRISEQFTAMFRRKAFLHWYTGEGMDEMEFTEAESNMNDLVSEYQQYQDATAEEEEDFGEEAEEEA
notes: β-tubulin (TUBB5), human, endogenous; identified by MS and western blot; folding intermediate to near-natively folded, depending on the state of TRiC; also called substrate; source: endogenous, HEK293F cells, co-purified with TRiC
binds: all assays above
